# B1: mouse anti-human MASP-2 monoclonal antibody 47A1 (antibody, V domains shown)
# VH: DVQLQESGPGLVKPSQSLSLTCTVTGYSITSDYAWNWIRQFPGNKLEWMGYISYSGRTSYNPSLKSRISITRNTSTNQFFLQLNSVTTEDTATYFCARYWGDYWGQGTTLTVSS
# VL: DIVMTQSQKFMSTSVGDRVSVTCKASQNVGSNVAWFQQKPGQSPKPLIYSASYRYSGVPDRFTGSGSGTDFTLTISNVQSEDLAEYFCHQYNTYPLTFGAGTKLELN
# notes: Mouse hybridoma monoclonal antibody purified from serum-free culture and detected with anti-mouse HRP; the mouse constant regions are not; also called 47A1 antibody
# B2: humanized anti-MASP-2 antibody JYB1931A13 (antibody, V domains shown)
# VH: QVQLQESGPGLVKPSQTLSLTCTVSGYSITSDYAWNWIRQPPGKGLEWIGYISYSGRTSYNPSLKSRVTISRDTSKNQFSLKLSSVTAADTAVYYCARYWGDYWGQGTLVTVSS
# VL: DIQMTQSPSSLSASVGDRVTITCKASQNVGSNVAWFQQKPGKAPKPLIYSASYRYSGVPSRFSGSGSGTDFTLTISSLQPEDFATYFCHQYNTYPLTFGGGTKVEIK
# notes: Humanized from 47A1 and expressed in ExpiCHO as a full antibody; captured on an AHC (anti-human Fc) sensor
# B3: humanized anti-MASP-2 antibody JYB1931A63 (antibody, V domains shown)
# VH: EVQLVESGGGLVQPGGSLRLSCAASGFTFNDYNMAWVRQAPGKGLEWVATILFDGSRTYYRDSVKGRFTISRDNAKNSLYLQMNSLRAEDTAVYYCSTESPYYSEGYYQGYFDYWGQGTLVTVSS
# VL: EIVLTQSPATLSLSPGERATLSCRASQSVSTSIHWYQQKPGQAPRLLIKYASRSISGIPARFSGSGSGTDFTLTISSLEPEDFAVYYCQQSYSSLYTFGQGTKLEIK
# notes: Humanized from 50A6 and expressed in ExpiCHO as a full antibody; captured on an AHC (anti-human Fc) sensor
# B4: rat anti-human MASP-2 monoclonal antibody 50A6 (antibody, V domains shown)
# VH: EVQLVESGGGLVQPGRSLSLSCAASGFTFNDYNMAWVRQTPKKGLEWVATILFDGSRTYYRDSVKGRFTISRENAKSTLYLQMDSLRSEDTATYYCSTESPYYSEGYYQGYFDYWGQGVMVTVSS
# VL: NIVLTQSPATLSVTPGESVSLSCRASQSVSTSIHWYQQRSNESPRLLIKYASRSISGIPSRFSGSGSGTDFTLSINRVESEDFSIYYCQQSYSSLYTFGAGTKLELR
# notes: Rat hybridoma monoclonal antibody purified from serum-free culture and detected with anti-rat Fc-HRP; the rat constant regions are not; also called 50A6 antibody
# How the values were obtained:
# [1] = biological target: T1, cynomolgus monkey MASP-2 cMASP2-D456 (cynomolgus monkey); experiment: ELISA on plate-coated cMASP2-D456, detection with HRP secondary antibody, OD450/630nm
# T1 construct: Made by the same method as hMASP2-D456
# Experimental: (§1) The mouse mMASP2-D456 and cynomolgus monkey cMASP2-D456 were diluted to 1.0 μg/mL and 0.5 μg/mL with a carbonate buffer solution, each added to a high binding transparent polystyrene 96-well plate (Nunc) with 100 μL/well and wrapped overnight at 4° C. The next day, the ELISA plate was washed twice on an automatic plate washer with a washing buffer (PBS+0.05% Tween 20 (sigma)). 300 μL of blocking buffer (PBS+0.05% Tween 20 (sigma)+1% BSA) was added to each well, and the ELISA plate was sealed at room temperature for 1 hour. Then the ELISA plate was washed twice with the washing buffer on the automatic plate washer, and the monoclonal antibody 50A6 was diluted with the blocking buffer to 15.0 μg/mL at 11 gradients. The monoclonal antibody was sequentially added to each well of the ELISA plate and incubated at room temperature for 1 hour, and then the plate was washed 3 times according to the above method. 100 μL of goat anti-mouse HRP (Sigma, article number: M4280) or rabbit anti-rat Fc-HRP (Sigma, article number: A5795) diluted at 1:5000 with the blocking buffer was added to each well. Incubation was performed at room temperature for 1 hour, and then the plate was washed 3 times according to the above method. […] The plate was read at 450 nm on a Thermo Multiscan FC. Graphs were drawn with Graphpad and EC50 was calculated. […]
# [2] = biological target: T2, recombinant human MASP-2 protein hMASP2-D456 (human, UniProt O00187 287-686); experiment: ELISA on plate-coated hMASP2-D456, detection with HRP secondary antibody, OD450/630nm; unit taken from the axis 'Antibody nM (Ig)'
# Experimental: as §1, with “The hMASP2-D456 was” for “The mouse mMASP2-D456 and cynomolgus monkey cMASP2-D456 were”, “buffer solution (CBS),” for “buffer solution,”, “antibody” for “antibody 50A6”, “to 8” for “to 15.0 μg/mL at 11”, “1:5000 in” for “1:5000 with”
# [3] = biological target: T1, cynomolgus monkey MASP-2 cMASP2-D456; experiment: Octet RED96e BLI, antibody captured on AHC sensor, antigen 30 nM, 1:1 fit
# Experimental: (§2) Affinities of candidate antibodies JYB1931A63 and JYB1931A13 to human hMASP2-D456 (KACTUS, batch number: 080203), cynomolgus monkey cMASP2-D456 (KACTUS, batch number: 030301), and mouse mMASP2-D456 (KACTUS, batch number: 030401) were measured by Octet RED96e (Fortebio). The antigen and antibody were diluted with 1×PBST (1×PBS: Sangon, B548117-0500; 0.02% Tween 20: sigma-aldrich, P1379) at a concentration of 30 nM for the antigen and a concentration of 5 μg/mL for the antibody.
# (§3) First, the sample was added to a 96-well plate (Greiner bio-one, 655209) with a system of 200 μL/well. Then, software parameters were set, the temperature of the plate was set to 30° C., and the frequency for collecting standard dynamic signals was 5.0 Hz. Next, an AHC sensor (Fortebio, article number: 18-0015) was pre-wet with 1×PBST for 10 minutes, and then data were acquired. Each cycle included the following steps: 1) immersing the sensor in a buffer solution for 60 seconds; 2) detecting whether the antigen had non-specific binding with the sensor; 3) regenerating the sensor with 10 mM pH 1.7 glycine solution; 4) immersing the sensor in the buffer solution for 60 seconds; 5) immobilizing the antibody on the sensor for 60 seconds; 6) immersing the sensor in the buffer solution for 180 seconds; 7) binding the antigen and the antibody for 180 seconds; 8) dissociating the antigen and the antibody for 5 minutes; and 9) regenerating the sensor.
# (§4) A binding rate (Ka) and a dissociation rate (Kd) in a 1:1 antigen-antibody binding manner were measured by Fortebio's Data Analysis 12.0 software to calculate an equilibrium dissociation constant (KD) of the antibody.
# [4] = biological target: T2, recombinant human MASP-2 protein …; experiment: as above
# Experimental: as §2, §3, §4
# mouse MASP-2 mMASP2-D456 [5] = biological target: T3, mouse MASP-2 mMASP2-D456 (mouse, UniProt Q91WP0 287-685); experiment: Octet RED96e BLI, antibody captured on AHC sensor, antigen in solution
# T3 construct: Made by the same method as hMASP2-D456
# Experimental: as §2
# First, the sample was added to a 96-well plate (Greiner bio-one, 655209) with a system of 200 μL/well. Then, software parameters were set, the temperature of the plate was set to 30° C., and the frequency for collecting standard dynamic signals was 5.0 Hz. Next, an AHC sensor (Fortebio, article number: 18-0015) was pre-wet with 1×PBST for 10 minutes, and then data were acquired. […]
# as §4
# [6] = biological target: T2, recombinant human MASP-2 protein …; experiment: ELISA on plate-coated hMASP2-D456, detection with HRP secondary antibody, OD450/630nm; unit taken from the axis 'Antibody pM (Ig)'
# Experimental: as §1, with “The hMASP2-D456 was” for “The mouse mMASP2-D456 and cynomolgus monkey cMASP2-D456 were”, “buffer solution (CBS),” for “buffer solution,”, “antibody” for “antibody 50A6”, “to 8” for “to 15.0 μg/mL at 11”, “1:5000 in” for “1:5000 with”
# mouse MASP-2 mMASP2-D456 [7] = biological target: T3, mouse MASP-2 mMASP2-D456; experiment: ELISA on plate-coated mMASP2-D456, OD450/630nm
# Experimental: as §1
# [8] = biological target: T1, cynomolgus monkey MASP-2 cMASP2-D456; experiment: ELISA on plate-coated cMASP2-D456, detection with HRP secondary antibody, OD450/630nm; unit taken from the axis 'Antibody pM (Ig)'
# Experimental: as §1
# T2 sequence (O00187 other isoform, or with tags, fused parts or gaps limits assumed): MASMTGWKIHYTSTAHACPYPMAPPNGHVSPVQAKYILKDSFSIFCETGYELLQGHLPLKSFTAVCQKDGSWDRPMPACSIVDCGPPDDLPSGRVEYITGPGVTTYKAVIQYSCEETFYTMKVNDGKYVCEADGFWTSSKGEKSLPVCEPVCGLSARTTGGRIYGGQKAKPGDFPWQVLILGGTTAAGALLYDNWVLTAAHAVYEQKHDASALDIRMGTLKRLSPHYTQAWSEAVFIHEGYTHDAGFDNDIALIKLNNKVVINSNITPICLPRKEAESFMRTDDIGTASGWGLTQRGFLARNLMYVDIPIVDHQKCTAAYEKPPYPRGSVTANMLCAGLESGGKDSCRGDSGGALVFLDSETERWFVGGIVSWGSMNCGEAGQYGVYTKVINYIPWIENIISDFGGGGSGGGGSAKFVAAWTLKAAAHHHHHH
# T3 sequence (Q91WP0 other isoform, or with tags, fused parts or gaps limits assumed): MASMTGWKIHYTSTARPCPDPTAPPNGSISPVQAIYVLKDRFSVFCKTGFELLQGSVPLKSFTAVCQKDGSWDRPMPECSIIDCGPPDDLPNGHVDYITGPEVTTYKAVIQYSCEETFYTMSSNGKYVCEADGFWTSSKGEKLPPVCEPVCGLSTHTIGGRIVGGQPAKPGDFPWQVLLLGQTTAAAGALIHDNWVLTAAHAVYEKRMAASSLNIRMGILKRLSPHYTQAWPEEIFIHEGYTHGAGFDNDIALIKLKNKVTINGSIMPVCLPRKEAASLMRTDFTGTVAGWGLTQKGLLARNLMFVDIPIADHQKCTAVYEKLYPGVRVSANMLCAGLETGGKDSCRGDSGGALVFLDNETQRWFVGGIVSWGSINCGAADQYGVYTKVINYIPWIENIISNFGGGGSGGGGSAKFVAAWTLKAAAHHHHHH
# T1 sequence (chain, as listed by the source limits assumed): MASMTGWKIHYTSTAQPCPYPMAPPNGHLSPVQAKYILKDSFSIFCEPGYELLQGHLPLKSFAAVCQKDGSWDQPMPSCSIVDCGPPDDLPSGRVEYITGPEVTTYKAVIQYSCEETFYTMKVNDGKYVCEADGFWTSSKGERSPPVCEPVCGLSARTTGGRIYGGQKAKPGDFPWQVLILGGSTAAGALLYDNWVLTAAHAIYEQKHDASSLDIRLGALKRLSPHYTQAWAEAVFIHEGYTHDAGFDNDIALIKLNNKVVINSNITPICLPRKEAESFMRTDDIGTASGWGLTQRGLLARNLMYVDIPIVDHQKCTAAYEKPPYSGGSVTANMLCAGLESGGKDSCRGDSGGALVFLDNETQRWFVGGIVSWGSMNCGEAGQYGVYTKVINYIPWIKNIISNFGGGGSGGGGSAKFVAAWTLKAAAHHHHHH
Binder,Kd [3] [nM],Kd [4] [nM],binding result (mouse MASP-2 mMASP2-D456 [5]),also measured
B1,–,–,–,EC50 (read off the curve) [1]: ~0.6 nM; EC50 [2]: 0.333 nM
B2,0.305,1.17,no binding (tested: 30 nM antigen),–
B3,1.31,0.335,no binding (tested: 30 nM antigen),–
B4,–,–,–,EC50 [6]: 0.0933 nM; binding result (mouse MASP-2 mMASP2-D456 [7]): no binding; EC50 [8]: 0.067 nM

# Source: patent US20240141069A1 (SHANGHAI JEMINCARE PHARMACEUTICAL, published 2024)
